Assays:
Grb2 SH2 = Grb2 SH2 (UniProt P62993); test: SH2 binding enrichment of the phosphorylated peptide, bacterial display (enrichment ratio); higher = better substrate or ligand; peptides without Tyr show the background
SHP2-C SH2 = test: as above
c-Src SH2 = test: as above
FGFR1 = FGFR1 (UniProt P11362); test: phosphorylation enrichment, bacterial display (enrichment ratio); higher = better substrate or ligand; peptides without Tyr show the background
EPHB2 = EPHB2 (UniProt P29323); test: as above
EPHB2, sequence (P29323 whole entry, looked up): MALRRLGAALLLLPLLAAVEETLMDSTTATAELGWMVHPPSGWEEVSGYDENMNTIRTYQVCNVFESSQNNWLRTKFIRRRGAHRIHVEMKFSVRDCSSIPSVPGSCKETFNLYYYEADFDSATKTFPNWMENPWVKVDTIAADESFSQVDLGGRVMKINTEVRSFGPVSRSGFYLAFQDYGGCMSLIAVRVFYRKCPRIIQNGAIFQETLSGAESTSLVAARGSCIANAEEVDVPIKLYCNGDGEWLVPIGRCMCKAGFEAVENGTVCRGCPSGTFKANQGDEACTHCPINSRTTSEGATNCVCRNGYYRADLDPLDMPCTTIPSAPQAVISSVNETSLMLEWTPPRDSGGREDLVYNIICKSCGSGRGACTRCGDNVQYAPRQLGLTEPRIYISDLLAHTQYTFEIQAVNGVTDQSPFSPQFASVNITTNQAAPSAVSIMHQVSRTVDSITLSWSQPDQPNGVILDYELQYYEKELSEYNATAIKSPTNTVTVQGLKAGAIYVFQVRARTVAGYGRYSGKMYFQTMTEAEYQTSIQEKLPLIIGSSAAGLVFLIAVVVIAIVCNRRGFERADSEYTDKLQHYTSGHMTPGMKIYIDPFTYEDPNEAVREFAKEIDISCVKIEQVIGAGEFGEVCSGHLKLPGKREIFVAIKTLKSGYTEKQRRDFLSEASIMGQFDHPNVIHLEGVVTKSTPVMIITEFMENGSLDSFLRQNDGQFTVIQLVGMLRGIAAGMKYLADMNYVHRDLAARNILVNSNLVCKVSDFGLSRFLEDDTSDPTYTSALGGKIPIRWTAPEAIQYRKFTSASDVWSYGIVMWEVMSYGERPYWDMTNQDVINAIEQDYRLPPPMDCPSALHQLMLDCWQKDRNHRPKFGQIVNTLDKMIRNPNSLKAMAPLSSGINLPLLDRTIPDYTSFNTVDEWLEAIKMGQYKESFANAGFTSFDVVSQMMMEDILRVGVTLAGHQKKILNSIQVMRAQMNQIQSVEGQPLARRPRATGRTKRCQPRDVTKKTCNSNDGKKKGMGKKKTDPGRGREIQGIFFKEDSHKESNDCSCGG

Jak2 = Jak2 (UniProt O60674); test: as above
Jak2, sequence (O60674 whole entry, looked up): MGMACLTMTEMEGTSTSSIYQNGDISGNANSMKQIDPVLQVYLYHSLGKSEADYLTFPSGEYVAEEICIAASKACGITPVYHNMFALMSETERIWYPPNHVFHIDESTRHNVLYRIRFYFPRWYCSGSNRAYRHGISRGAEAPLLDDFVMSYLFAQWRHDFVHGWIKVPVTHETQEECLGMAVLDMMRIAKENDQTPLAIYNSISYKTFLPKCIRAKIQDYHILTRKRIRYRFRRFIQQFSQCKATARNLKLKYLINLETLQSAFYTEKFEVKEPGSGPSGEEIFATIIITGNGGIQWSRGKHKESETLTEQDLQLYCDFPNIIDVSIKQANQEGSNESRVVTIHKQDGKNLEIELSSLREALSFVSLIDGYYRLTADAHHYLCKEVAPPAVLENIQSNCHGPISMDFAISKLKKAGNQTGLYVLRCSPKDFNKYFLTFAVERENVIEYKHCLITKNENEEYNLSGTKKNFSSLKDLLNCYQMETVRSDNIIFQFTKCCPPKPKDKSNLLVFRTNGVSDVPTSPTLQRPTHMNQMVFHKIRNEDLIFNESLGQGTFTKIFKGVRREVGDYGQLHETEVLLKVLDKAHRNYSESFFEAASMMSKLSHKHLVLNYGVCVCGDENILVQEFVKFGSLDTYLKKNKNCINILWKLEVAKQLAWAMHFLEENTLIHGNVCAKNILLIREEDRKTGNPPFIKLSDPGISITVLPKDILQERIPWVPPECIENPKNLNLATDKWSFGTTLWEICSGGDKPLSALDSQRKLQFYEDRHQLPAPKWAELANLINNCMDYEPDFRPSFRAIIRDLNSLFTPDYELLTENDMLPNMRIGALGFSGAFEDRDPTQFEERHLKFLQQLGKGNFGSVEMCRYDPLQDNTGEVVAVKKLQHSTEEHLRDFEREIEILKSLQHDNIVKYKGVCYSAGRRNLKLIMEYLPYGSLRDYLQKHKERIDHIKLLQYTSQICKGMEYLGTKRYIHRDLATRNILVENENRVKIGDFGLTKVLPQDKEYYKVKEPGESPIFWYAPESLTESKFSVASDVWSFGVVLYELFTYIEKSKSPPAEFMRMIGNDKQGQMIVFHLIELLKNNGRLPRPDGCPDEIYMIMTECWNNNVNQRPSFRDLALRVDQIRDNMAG

c-Src = test: as above
Fes = Fes (UniProt P07332); test: as above
Fes, sequence (P07332 whole entry, looked up): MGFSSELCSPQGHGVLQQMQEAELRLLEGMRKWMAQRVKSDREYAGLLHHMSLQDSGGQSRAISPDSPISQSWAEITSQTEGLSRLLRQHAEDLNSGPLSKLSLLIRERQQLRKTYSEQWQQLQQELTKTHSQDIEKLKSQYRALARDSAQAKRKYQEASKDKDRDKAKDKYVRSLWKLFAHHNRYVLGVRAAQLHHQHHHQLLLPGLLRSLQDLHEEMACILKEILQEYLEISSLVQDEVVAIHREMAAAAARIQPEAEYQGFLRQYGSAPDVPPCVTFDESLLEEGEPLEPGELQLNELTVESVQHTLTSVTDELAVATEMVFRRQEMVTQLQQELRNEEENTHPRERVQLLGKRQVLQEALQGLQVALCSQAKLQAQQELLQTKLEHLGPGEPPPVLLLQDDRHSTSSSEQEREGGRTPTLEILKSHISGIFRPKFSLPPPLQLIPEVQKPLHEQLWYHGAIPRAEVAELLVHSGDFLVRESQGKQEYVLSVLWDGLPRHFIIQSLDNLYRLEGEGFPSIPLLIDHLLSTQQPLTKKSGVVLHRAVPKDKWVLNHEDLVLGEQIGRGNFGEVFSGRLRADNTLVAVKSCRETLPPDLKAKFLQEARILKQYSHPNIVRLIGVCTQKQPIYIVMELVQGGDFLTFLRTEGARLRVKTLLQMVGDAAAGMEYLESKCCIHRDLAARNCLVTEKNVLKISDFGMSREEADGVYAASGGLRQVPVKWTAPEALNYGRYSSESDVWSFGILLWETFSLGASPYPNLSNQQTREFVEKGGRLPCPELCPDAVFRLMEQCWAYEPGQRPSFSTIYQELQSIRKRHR

Fer (mouse) = test: as above
AncSZ = test: as above
FGFR3 = FGFR3 (UniProt P22607); test: as above
FGFR3, sequence (P22607 whole entry, looked up): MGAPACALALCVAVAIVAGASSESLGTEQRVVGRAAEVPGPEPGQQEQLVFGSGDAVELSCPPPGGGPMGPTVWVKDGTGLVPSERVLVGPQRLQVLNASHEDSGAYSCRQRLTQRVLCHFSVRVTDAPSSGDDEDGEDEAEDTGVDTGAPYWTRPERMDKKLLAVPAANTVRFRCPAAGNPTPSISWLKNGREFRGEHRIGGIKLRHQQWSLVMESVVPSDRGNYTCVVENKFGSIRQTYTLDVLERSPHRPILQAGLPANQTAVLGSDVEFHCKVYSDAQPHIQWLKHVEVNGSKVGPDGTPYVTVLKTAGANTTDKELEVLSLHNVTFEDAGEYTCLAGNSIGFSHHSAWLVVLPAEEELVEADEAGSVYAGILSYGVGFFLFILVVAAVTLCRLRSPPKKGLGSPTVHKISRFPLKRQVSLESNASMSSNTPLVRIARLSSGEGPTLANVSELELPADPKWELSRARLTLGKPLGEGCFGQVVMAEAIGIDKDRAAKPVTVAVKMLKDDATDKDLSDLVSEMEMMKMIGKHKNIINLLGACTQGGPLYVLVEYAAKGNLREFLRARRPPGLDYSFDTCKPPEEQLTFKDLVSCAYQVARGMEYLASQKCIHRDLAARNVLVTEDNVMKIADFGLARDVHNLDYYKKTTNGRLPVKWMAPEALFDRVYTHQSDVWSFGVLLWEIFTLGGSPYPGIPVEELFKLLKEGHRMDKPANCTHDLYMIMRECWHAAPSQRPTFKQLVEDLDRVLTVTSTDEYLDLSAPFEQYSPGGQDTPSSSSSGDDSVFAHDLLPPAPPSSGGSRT

MERTK = MERTK (UniProt Q12866); test: as above
c-Abl (mouse) = test: as above
Fyn = Fyn (UniProt P06241); test: as above
EPHB1 = EPHB1 (UniProt P54762); test: as above
Hck = Hck (UniProt P08631); test: as above
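Throughout, for SH2 binding enrichment of the phosphorylated peptide, bacterial display: peptide library displayed on the E. coli surface as eCPX fusions, selected cells deep-sequenced, score is each peptide's frequency after selection divided by its frequency in the input.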
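Throughout, for phosphorylation enrichment, bacterial display: 11-residue human phosphosite peptides and single-mutation variants displayed on the E. coli surface, counted by deep sequencing, each peptide's frequency after selection divided by its frequency in the unselected input library; frequency after pTyr selection over input frequency; kinase dosed for 20-30% of maximal phosphorylation in three min.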

FGFR1, sequence (P11362 whole entry, looked up): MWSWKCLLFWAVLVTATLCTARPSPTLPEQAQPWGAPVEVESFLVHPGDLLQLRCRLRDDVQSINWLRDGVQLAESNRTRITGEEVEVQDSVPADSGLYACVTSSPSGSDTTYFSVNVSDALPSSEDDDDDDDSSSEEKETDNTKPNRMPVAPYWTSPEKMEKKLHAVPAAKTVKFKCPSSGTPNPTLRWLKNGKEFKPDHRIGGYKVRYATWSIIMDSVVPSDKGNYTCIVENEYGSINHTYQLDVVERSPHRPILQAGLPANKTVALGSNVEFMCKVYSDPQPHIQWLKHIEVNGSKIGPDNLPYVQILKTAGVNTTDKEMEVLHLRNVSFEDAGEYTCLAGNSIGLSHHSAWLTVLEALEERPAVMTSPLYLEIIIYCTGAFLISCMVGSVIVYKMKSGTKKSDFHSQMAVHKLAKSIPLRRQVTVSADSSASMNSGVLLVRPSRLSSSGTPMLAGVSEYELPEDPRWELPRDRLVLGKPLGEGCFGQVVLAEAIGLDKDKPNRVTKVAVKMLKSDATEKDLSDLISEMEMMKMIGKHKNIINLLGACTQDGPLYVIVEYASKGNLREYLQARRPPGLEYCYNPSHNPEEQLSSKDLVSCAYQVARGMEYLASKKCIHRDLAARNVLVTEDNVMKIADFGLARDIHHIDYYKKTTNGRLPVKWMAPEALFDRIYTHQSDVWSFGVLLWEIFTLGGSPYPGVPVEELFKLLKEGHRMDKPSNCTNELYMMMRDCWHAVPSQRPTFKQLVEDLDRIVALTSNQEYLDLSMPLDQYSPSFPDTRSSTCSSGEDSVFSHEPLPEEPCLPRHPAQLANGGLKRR

| Sequence | SH2 binding enrichment (Grb2 SH2) | SH2 binding enrichment (SHP2-C SH2) | SH2 binding enrichment (c-Src SH2) | phosphorylation enrichment (FGFR1) | phosphorylation enrichment (EPHB2) | phosphorylation enrichment (Jak2) | phosphorylation enrichment (c-Src) | phosphorylation enrichment (Fes) | phosphorylation enrichment (Fer (mouse)) | phosphorylation enrichment (AncSZ) | phosphorylation enrichment (FGFR3) | phosphorylation enrichment (MERTK) | phosphorylation enrichment (c-Abl (mouse)) | phosphorylation enrichment (Fyn) | phosphorylation enrichment (EPHB1) | phosphorylation enrichment (Hck) |
| --- | --- | --- | --- | --- | --- | --- | --- | --- | --- | --- | --- | --- | --- | --- | --- | --- |
| ENQEIYRKAFD [KPNA1_Y493_Q494R] | 0.814 | 0.719 | 0.397 | 0.537 | 0.798 | 1.3 | 0.451 | 1.13 | 0.55 | 0.883 | 0.627 | 0.393 | 0.812 | 0.431 | 0.618 | 0.499 |
| KDPPDYKYQPR [SOX9_Y172_H169P] | 1.02 | 1.02 | 0.503 | 0.461 | 0.518 | 0.663 | 0.538 | 0.788 | 0.421 | 0.837 | 0.479 | 0.375 | 0.747 | 0.51 | 0.489 | 0.353 |
| GGSDRYGSLRP [MYLK_Y846] | 0.997 | 0.562 | 0.428 | 0.425 | 0.418 | 0.716 | 0.452 | 0.61 | 0.332 | 0.494 | 0.407 | 0.37 | 0.495 | 0.385 | 0.385 | 0.339 |
| SIKDKYVMALY [KCNH2_Y611_T613M] | 0.836 | 0.679 | 0.514 | 0.638 | 0.481 | 0.648 | 0.422 | 0.734 | 0.45 | 0.639 | 0.547 | 0.441 | 0.599 | 0.483 | 0.505 | 0.59 |
| RDLTDYLMKIL [ACTA1_Y190] | 1.43 | 1.37 | 1.15 | 0.539 | 0.529 | 1.16 | 0.613 | 1.21 | 0.581 | 1.09 | 0.896 | 0.477 | 0.791 | 0.554 | 0.58 | 0.551 |
| TQKLAYMELQQ [CENPF_Y700] | 0.934 | 1.17 | 0.931 | 0.596 | 0.454 | 0.794 | 0.509 | 0.907 | 0.513 | 0.776 | 0.629 | 0.527 | 0.94 | 0.455 | 0.482 | 0.52 |
| MTFQNYGQALF [FAM20C_Y279] | 0.921 | 0.783 | 0.515 | 0.46 | 1.65 | 0.893 | 0.489 | 0.827 | 0.496 | 0.901 | 0.739 | 0.429 | 0.605 | 0.458 | 0.758 | 0.462 |

Further lines, with some results ahead:

| SH2 binding enrichment (Grb2 SH2) | SH2 binding enrichment (SHP2-C SH2) | SH2 binding enrichment (c-Src SH2) | Sequence | phosphorylation enrichment (FGFR1) | phosphorylation enrichment (EPHB2) | phosphorylation enrichment (Jak2) | phosphorylation enrichment (c-Src) | phosphorylation enrichment (Fes) | phosphorylation enrichment (Fer (mouse)) | phosphorylation enrichment (AncSZ) | phosphorylation enrichment (FGFR3) | phosphorylation enrichment (MERTK) | phosphorylation enrichment (c-Abl (mouse)) | phosphorylation enrichment (Fyn) | phosphorylation enrichment (EPHB1) | phosphorylation enrichment (Hck) |
| --- | --- | --- | --- | --- | --- | --- | --- | --- | --- | --- | --- | --- | --- | --- | --- | --- |
| 0.845 | 1.03 | 0.778 | MFFSTYDRDND [FGB_Y408] | 0.673 | 0.578 | 1.03 | 0.589 | 1.05 | 0.501 | 0.849 | 0.601 | 0.408 | 0.84 | 0.426 | 0.541 | 0.511 |
| 0.895 | 0.644 | 0.474 | EEQKKNFNAMK [SCN5A_Y1494_Y1494N_YF] | 0.38 | 0.494 | 0.691 | 0.385 | 0.711 | 0.369 | 0.908 | 0.546 | 0.409 | 0.607 | 0.376 | 0.381 | 0.512 |
| 0.761 | 0.697 | 0.556 | VFSTDYFRVGG [NTRK2_Y706_YF] | 6.21 | 0.709 | 8.12 | 0.757 | 0.859 | 0.499 | 1.69 | 3.75 | 0.587 | 0.734 | 0.464 | 0.826 | 0.459 |
| 2.78 | 1.14 | 0.832 | ELTAKYLNFFR [P3H4_Y181_Q186R_YF] | 0.394 | 0.425 | 0.632 | 0.366 | 0.778 | 0.335 | 0.684 | 0.513 | 0.435 | 0.574 | 0.444 | 0.414 | 0.456 |
| 1.4 | 1.18 | 1.23 | LKRIAYFLCLL [LGI1_Y21] | 0.696 | 0.536 | 1.09 | 0.484 | 1.53 | 0.714 | 1.05 | 0.741 | 0.424 | 0.821 | 0.506 | 0.64 | 0.394 |
| 0.758 | 0.583 | 0.508 | WAAQRYGRELR [BAD_Y110] | 0.464 | 0.433 | 0.782 | 0.487 | 0.742 | 0.398 | 0.887 | 0.396 | 0.514 | 0.599 | 0.445 | 0.406 | 0.476 |
| 0.785 | 0.718 | 0.621 | PIAPVYAPSMV [ACAT1_Y331_A333P] | 0.779 | 2.72 | 0.738 | 8.41 | 1.67 | 16.1 | 1.35 | 1.22 | 4.7 | 49.8 | 9.96 | 2.4 | 21 |
| 0.991 | 0.876 | 0.823 | IPGGIYDADLN [CST4_Y35] | 0.746 | 0.649 | 1.4 | 1.62 | 1.32 | 0.611 | 1.24 | 0.836 | 0.787 | 1.14 | 1.76 | 0.582 | 1.65 |
| 1.44 | 1.77 | 1.01 | NTQRPHYKGGG [TYROBP_Y111_Y111H] | 0.316 | 0.332 | 0.491 | 0.361 | 0.549 | 0.422 | 0.428 | 0.486 | 0.391 | 0.605 | 0.402 | 0.326 | 0.384 |
